According to patent US9289444B2, “Composition for promoting hematogenesis containing quercetin 3-O-β-(2″-galloyl)-rhamnopyranoside as active ingredient” (Chungbuk National University Industry Academic Cooperation …, priority 2011, dated 2016):

Tested on: BMNCs
Test: Histochemistry (Wright-Giemsa) and immunocytochemistry for erythroid cells (TER-119)
Type: cell-based, mouse
Conditions: 7 days culture, Wright-Giemsa staining
Method: In order to investigate whether QGR can stimulate the differentiation of hematopoietic stem cells into erythroid cells, the morphology of cells was observed and immunocytochemistry against TER-119, the marker of erythroid progenitors, was carried out. BMNCs were harvested 7 days after incubation with either rEpo (3 units/ml) or QGR (100 or 200 μM/ml) washed with PBS, re-suspended at a concentration of 2×10^5 cells/ml in PBS and subjected (100 μl/slide) to cytospin for 5 min at 1,000 rpm (Cytospin3; Shandon, ThermoElectron, Waltham, Mass., USA). All slides were fixed using cold methanol. Wright-Giemsa stain was performed for morphologic analysis. Immunocytochemistry against TER-119 was carried out for cellular lineage with 100-fold dilution according to the manufacturer's instruction using avidin biotinylated enzyme complex kit (VECTASTAIN, Vector Laboratories and Burlingame, Calif., USA).

B1: positive control group: mouse recombinant Epo (rEpo, 3 units/ml), positive control in the erythroid differentiation tests (protein, UniProt P07321 27-192, looked up)
Erythropoietin: APPRLICDSRVLERYILEAKEAENVTMGCAEGPRLSENITVPDTKVNFYAWKRMEVEEQAIEVWQGLSLLSEAILQAQALLANSSQPPETLQLHIDKAISGLRSLTSLLRVLGAQKELMSPPDTTPPAPLRTLTVDTFCKLFRVYANFLRGKLKLYTGEVCRRGDR
number of enucleated erythroid cells: increased
